Data: US11733246B2, “Compositions, imaging, and therapeutic methods targeting folate receptor 1 (FOLR1)” (Indi Molecular, Inc., priority 2020, dated 2023)
Values joined by “and” are separate entries in the source; they are usually repeats but may differ in a detail not shown here. Identical values can stand only once. Numbered stars: 1 amine (or outer) side, 2 acyl side, 3 side chain; on linkers, the order of the positions; unused ones are H or OH. Bridge positions count the residues as written; N and C are the ends. Square brackets hold non-standard residues; d marks the D form. Triazole bridges read from a SMILES are 1,4-linked. Peptide text beside a SMILES is read from it. * marks the point of attachment. DOTA = O=C(O)CN1CCN(CC(=O)O)CCN(CC(=O)*)CCN(CC(=O)O)CC1; Pteroyl = Nc1nc2ncc(CNc3ccc(C(=O)*)cc3)nc2c(=O)[nH]1; Biotin = O=C1N[C@H]2[C@H](CS[C@H]2CCCCC(=O)*)N1; PEG10 = NCCOCCOCCOCCOCCOCCOCCOCCOCCOCCOCCC(=O)O; Butanoyl(4-(4-MePh)) = Cc1ccc(CCCC(=O)*)cc1; Lys(N3) = [N-]=[N+]=NCCCC[C@H](N)C(=O)O; γGlu = O=C(O)[C@H](CCC(=O)[*:2])N[*:1]; AEEEA = NCCOCCOCCOCC(=O)O; Pra = C#CC[C@H](N)C(=O)O

Columns and labels:
in vitro [1] = conditions: CD-1, mouse, plasma, pH 7.4, Plasma Stability (t 1/2)
Description: (§4) Plasma was thawed in a 37° C. water bath. Residual clots were removed via centrifugation at 4000 rpm for 5 minutes. The pH of the plasma was adjusted to 7.4 if required. Test articles were diluted to 100 μM by diluting a 1 mM working solution (in DMSO) with 45% methanol in water. To 98 μL of plasma was added 2 μL of the 100 μM solution, resulting in 2 μM final concentration of the test article. Samples were incubated at 37° C. in a water bath. At the indicated time points (0, 10, 30, 60, 120 minutes) 100 μL of 4% H3PO4 was added followed by 800 μL of stop solution (200 ng/mL tolbutamide and 200 ng/mL labetalol in 100% acetonitrile). The samples were centrifuged and the plasma protein-free supernatant (100 μL) was subjected to LC-MS/MS analysis.

[2] = Plasma protein binding (equilibrium dialysis), mouse; type: in vitro ADME, CD-1 mouse; conditions: CD-1, mouse
Summary of the method: (§1)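 Equilibrium dialysis across 12-14 kDa cellulose membranes; test articles at 2 μM in mouse or human plasma adjusted to pH 7.0-8.0, in triplicate. Dialysed 4 hours at 37° C. with slow shaking; both sides quantified by LC-MS/MS to give fraction bound.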

in vitro [3] = conditions: human, plasma, pH 7.4, Plasma Stability (t 1/2)
Description: as §4

human recombinant NEP = human recombinant NEP (Homo sapiens, UniProt P08473); type: biochemical
human recombinant NEP, sequence (P08473 whole entry): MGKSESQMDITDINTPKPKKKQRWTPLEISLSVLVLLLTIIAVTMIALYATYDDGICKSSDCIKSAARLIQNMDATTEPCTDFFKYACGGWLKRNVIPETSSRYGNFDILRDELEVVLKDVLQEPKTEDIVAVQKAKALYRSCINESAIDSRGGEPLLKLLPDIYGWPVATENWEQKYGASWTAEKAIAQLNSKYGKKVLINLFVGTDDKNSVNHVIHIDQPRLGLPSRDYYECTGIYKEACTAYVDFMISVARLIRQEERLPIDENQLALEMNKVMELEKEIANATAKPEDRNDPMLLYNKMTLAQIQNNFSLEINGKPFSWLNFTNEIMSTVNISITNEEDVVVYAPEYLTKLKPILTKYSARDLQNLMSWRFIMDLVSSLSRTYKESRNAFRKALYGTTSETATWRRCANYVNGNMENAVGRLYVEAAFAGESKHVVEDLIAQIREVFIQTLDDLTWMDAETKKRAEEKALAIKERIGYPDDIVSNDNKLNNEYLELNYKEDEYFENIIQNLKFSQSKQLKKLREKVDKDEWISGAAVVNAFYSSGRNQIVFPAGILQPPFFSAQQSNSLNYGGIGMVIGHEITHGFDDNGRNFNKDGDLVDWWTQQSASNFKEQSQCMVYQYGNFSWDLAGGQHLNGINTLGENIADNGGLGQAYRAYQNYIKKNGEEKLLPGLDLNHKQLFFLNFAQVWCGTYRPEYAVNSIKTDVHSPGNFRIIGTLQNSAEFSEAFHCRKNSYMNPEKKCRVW
Summary of the method: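 Peptide bearing GFK linker (10 μM) incubated with recombinant human NEP (10, 1, 0.1, 0.01 nM or none) at 37° C. for 1 h. Cleavage tracked by MALDI-MS, cleaved adduct identified by mass, and by HPLC as parent-peak depletion with new-peak appearance; non-cleavable PEG3 linker assayed for specificity.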

[4] = Plasma protein binding (equilibrium dialysis), human; type: in vitro ADME; conditions: human
Summary of the method: as §1

[5] = mouse, in vivo
Description: At endpoint, mice were sacrificed and plasma and tissues (tumor, kidney, liver, lung, muscle) were collected. Plasma samples were assayed for urea and creatinine biomarkers indicative of nephrotoxicity. Tissue samples were fixed in 10% buffered formalin, transferred to 70% ethanol, and embedded in paraffin for immunohistochemistry.
The heterobiligand dosed in these studies is Folate-hshta-PEG3-Lys(MPBA)-Lys(DOTA) (Compound #2809; SEQ ID NO:6)) labeled with ^177Lu. Plasma samples taken from tumor-bearing mice (at each dose) were assayed for biomarkers indicative of nephrotoxicity. These samples were compared to plasma taken from normal mice. Elevated urea levels in plasma could indicate kidney damage. Endogenous urea is converted to ammonia and carbon dioxide by the addition of urease. Berthelot's reagent reacts with the dissolved ammonia. The resulting green coloration can be used to back-calculate the amount of urea present in the original plasma sample.
Mouse plasma samples (five mice each from the 0 MBq control group, 3.7 MBq group, and 9.25 MBq group) taken at endpoint and normal mouse plasma were evaluated in urea assays to gain information on renal function. […]
In order to understand the toxicity-limiting tissues and organs, plasma was collected from the therapy studies and analyzed for blood urea nitrogen (BUN) and creatinine. […]

OVCAR3 xenografts = experiment: 177Lu FOLR1 radioligand therapy in OVCAR3 xenograft model; type: in vivo, mouse
Description: Water and food were provided ad libitum. […] Tumor growth was monitored by caliper measurements.
OVCAR3 tumor bearing mice were used to study FOLR1-directed radioligand therapy (RLT) for treatment of ovarian cancer. Animals were administered a single dose of heterobiligand (vehicle control) or 111, 37, 18.5, 9.25, or 3.7 MBq [^177Lu]DOTA-labeled heterobiligand. Mice received the dose intravenously (i.v.) via the tail vein. To monitor the effect of the RLT, tumor size measurements were taken twice weekly and body weights were measured.
The engraftment was allowed to expand until palpable tumor sizes ranging in size from 218-384 mm^3 were detected. […] These observed effects were consistant with radiation overdosing. […] The best response was observed using 9.25 MBq Lu-177 Heterobiligand (compound #2809).
Single dose treatments at 18.5 MBq/nmol specific activity. OVCAR3 mouse model was used. 10^7 cell tumors were implanted in the mice one month before administration of ^177Lu-#6305. Five mice each were administered Cold #6305, 9.25 MBq Lu177-#6305, and 14.8 MBq Lu177-#6305, and two mice were administered 29.6 MBq Lu177-#6305. Tumor growth and body weight were then monitored.
Female NSG mice were implanted subcutaneously with OVCAR3 cells. Once tumors reached volumes of 200 mm^3, the animals were treated with 177-Lu 7327. Three treatment arms of 9.25 MBq, 14.8 MBq, and 29.6 MBq were studied.
Female NSG mice were implanted subcutaneously with human OVCAR3 (FOLR+) ovarian cancer cells. Once tumors reached volumes of 200 mm^3, the animals were treated with Indi ^177Lu-7327. One treatment arm of 74 MBq and a control group of 0 MBq were studied (FIGS. 41 and 38A). […] The second dose was administered 21 days following the first dose. Statistically significant differential between treated and control was reached 24 days post-injection (three days following the second dose) for the 74 MBq arm. P values (* for p≤0.05, ** for p≤0.01) were determined by ordinary one-way ANOVA with Tukey's multiple comparisons test.

FOLR1 [6] = target: T1, FOLR1 (Homo sapiens, UniProt P15328); experiment: Competition ELISA with folic acid; type: binding
T1 construct: His; purchased SinoBiological 11241-H08H
T1 sequence (P15328 25-234): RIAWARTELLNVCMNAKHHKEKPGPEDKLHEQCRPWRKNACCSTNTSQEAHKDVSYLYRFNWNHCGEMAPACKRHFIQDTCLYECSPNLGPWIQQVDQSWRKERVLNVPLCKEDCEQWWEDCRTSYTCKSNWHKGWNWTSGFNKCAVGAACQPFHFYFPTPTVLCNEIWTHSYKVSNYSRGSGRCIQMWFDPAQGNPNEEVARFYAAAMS
Description: A competition experiment was conducted to further understand the binding kinetics of the lead heterobiligand (folate-hshta (SEQ ID NO:6) Nterm heterobiligand).
(§2) Nonclinical studies were first conducted with Folate-hshta-PEG10-PEG10-K(Biotin), where Folate-hshta is the targeting heterobiligand, PEG10 is a deca(ethylene glycol) linker, and K(Biotin) is the detection label. […] Cross reactivity with the murine folate receptor was also observed. […] In the merged image, purple puncta were observed indicating co-localization of internalized heterobiligand with early endosomes (Rab5a+ vesicles) in OVCAR3 cells.

FOLR1 [7] = target: T1, FOLR1; experiment: ELISA assay of FOLR1 binding; conditions: ELISA
Source text: FIG. 5 is a diagram of ELISA assay of FOLR1 binding of heterobiligands.
Nonclinical studies were first conducted with Folate-hshta-PEG10-PEG10-K(Biotin), where Folate-hshta is the targeting heterobiligand, PEG10 is a deca(ethylene glycol) linker, and K(Biotin) is the detection label.

PC3 FOLR1− cells = experiment: Flow cytometry binding to FOLR1 (−) cells; type: cell-based, human
Description: (§3) Both the kyeet (SEQ ID NO:9) and hshta (SEQ ID NO:6)-derived biligands were tested by flow cytometry for binding to FOLR1 (+) and FOLR1 (−) cell lines (FIGS. 6 and 7). The human ovarian adenocarcinoma-derived cell line OVCAR3 has robust FOLR1 expression and was selected as the FOLR1 (+) cell line. The human prostate adenocarcinoma-derived cell line PC-3 was selected as a FOLR1 (−) cell line.

OVCAR3 FOLR1+ cells = experiment: Flow cytometry binding to FOLR1 (+) cells; type: cell-based, human
Description: as §3
Competition at the cellular level was also probed.
Increasing the serum-bound fraction of the peptide may decrease first pass removal of the heterobiligand, and drive compound retention of tumor over kidney. Constructs bearing the known albumin binder 4-methylphenyl butyric acid (4-MPBA) were synthesized. These compounds were evaluated in vitro to verify binding fidelity to FOLR1. The modified heterobiligands were incubated at 400 nM with OVCAR3 and PC-3 cells for 20 minutes at 37° C. in complete media containing 20% FBS. They both bind to OVCAR3 FOLR1+ cells with similar binding affinities as the original heterobiligand studied (FIG. 14). […] Similar activity of these heterobiligands is anticipated in vivo.

OVCAR3 cells = experiment: Cell internalization assay (acid wash, flow cytometry); type: cell-based, human
Description: FIG. 10 is a diagram of an assay for assessing cell internalization FOLR1 heterobiligands.
The folate-hshta (SEQ ID NO:6) Nterm heterobiligand was also evaluated in cell penetration imaging assays (FIG. 10). OVCAR3 and PC-3 cells were incubated with the test article at 37° C. for 1 hour. Flow cytometry analysis of the resulting treated cells indicated strong binding to FOLR1 (+) cells. To understand the proportion bound to the surface but not internalized, the cells were briefly washed with acid to liberate the non-internalized peptide.
as §2

Structure (SMILES): C[C@H](O)[C@H]1NC(=O)[C@@H](Cc2cnc[nH]2)NC(=O)[C@@H](CO)NC(=O)[C@@H](Cc2cnc[nH]2)NC(=O)[C@@H](NC(=O)CC[C@H](NC(=O)c2ccc(NCc3cnc4nc(N)[nH]c(=O)c4n3)cc2)C(=O)O)Cc2cn(nn2)CCCC[C@@H](C(=O)NCC(=O)N[C@@H](Cc2ccccc2)C(=O)N[C@@H](CCCCNC(=O)CN2CCN(CC(=O)O)CCN(CC(=O)O)CCN(CC(=O)O)CC2)C(=O)O)NC(=O)[C@@H](C)NC1=O [compound #7327, Fol-hshta-Gly-Phe-Lys(DOTA)] ({Pteroyl-γGlu}-[Pra][dH][dS][dH][dT][dA][Lys(N3)]GFK(DOTA)-OH; triazole 1-7)
- half-life at 2 μM (in vitro [1]): > 115 h
- recovery at 4 h, 2 μM [2]: 102%
- fraction unbound at 4 h, 2 μM ([2]; plasma): 0.591
- half-life at 2 μM (in vitro [3]): > 115 h
- in vitro Assay Data (NEP assay) (human recombinant NEP): Cleavage of -G-F-K-
- recovery at 4 h, 2 μM [4]: 113%
- fraction unbound at 4 h, 2 μM ([4]; plasma): 0.597

Structure (SMILES): Cc1ccc(CCCC(=O)NCCCC[C@H](NC(=O)COCCOCCOCCNC(=O)[C@@H]2CCCCn3cc(nn3)C[C@H](NC(=O)CC[C@H](NC(=O)c3ccc(NCc4cnc5nc(N)[nH]c(=O)c5n4)cc3)C(=O)O)C(=O)N[C@H](Cc3c[nH]cn3)C(=O)N[C@H](CO)C(=O)N[C@H](Cc3c[nH]cn3)C(=O)N[C@H]([C@H](C)O)C(=O)N[C@H](C)C(=O)N2)C(=O)N[C@@H](CCCCNC(=O)CN2CCN(CC(=O)O)CCN(CC(=O)O)CCN(CC(=O)O)CC2)C(N)=O)cc1 [^177Lu-#2809, metal not drawn] ({Pteroyl-γGlu}-[Pra][dH][dS][dH][dT][dA][Lys(N3)][AEEEA]K(Butanoyl(4-(4-MePh)))K(DOTA)-NH2; triazole 1-7)
- BUN level relative to normal mice [5]: 1.5 times
- Comments (deaths / survival) (OVCAR3 xenografts; ^177Lu dose 0 (peptide alone), 3 mice): Sacrificed on day 24
- Comments (deaths / survival) (OVCAR3 xenografts; ^177Lu dose 0.1 mCi (3.7 MBq), 2 mice): Sacrificed on day 24
- Comments (deaths / survival) (OVCAR3 xenografts; ^177Lu dose 0.25 mCi (9.25 MBq), 2 mice): Sacrificed on day 24
- Comments (deaths / survival) (OVCAR3 xenografts; ^177Lu dose 0.5 mCi (18.5 MBq), 2 mice, listed as DOTA-Heterobiligand Albumin binder conjugate): 1 mouse died on day 10 and 1 mouse died on day 13
- Comments (deaths / survival) (OVCAR3 xenografts; ^177Lu dose 1 mCi (37 MBq), 2 mice): 2 mice died on day 10
- Comments (deaths / survival) (OVCAR3 xenografts; ^177Lu dose 3 mCi (111 MBq), 3 mice, listed as DOTA-Heterobiligand Albumin binder conjugate): 1 mouse died on day 5 and 2 mice died on day 4

Structure (SMILES): C[C@H](O)[C@H]1NC(=O)[C@@H](Cc2c[nH]cn2)NC(=O)[C@@H](CO)NC(=O)[C@@H](Cc2c[nH]cn2)NC(=O)[C@@H](NC(=O)CC[C@H](NC(=O)c2ccc(NCc3cnc4nc(N)[nH]c(=O)c4n3)cc2)C(=O)O)Cc2cn(nn2)CCCC[C@@H](C(=O)NCCOCCOCCOCCOCCOCCOCCOCCOCCOCCOCCC(=O)NCCOCCOCCOCCOCCOCCOCCOCCOCCOCCOCCC(=O)N[C@@H](CCCCNC(=O)CCCC[C@@H]2SC[C@@H]3NC(=O)N[C@@H]32)C(N)=O)NC(=O)[C@@H](C)NC1=O [Folate-hshta Nterm, Folate-hshta-PEG10-PEG10-K(Biotin)] ({Pteroyl-γGlu}-[Pra][dH][dS][dH][dT][dA][Lys(N3)][PEG10][PEG10]K(Biotin)-NH2; triazole 1-7)
- displacement by exogenous folate in competitive ELISA (FOLR1 [6]): resilient to displacement by exogenous folate
- binding affinity of the heterobiligand in presence of folic acid (FOLR1 [6]; folic acid from 0 to 500 nM): virtually unchanged
- competition by folic acid (FOLR1 [6]; folic acid greater than 500 nM): partially compete away
- affinity relative to folate itself (FOLR1 [7]): ~30 fold
- binding of PC3 FOLR1− cells (PC3 FOLR1− cells): low non-specific binding
- percentage of OVCAR3 cells binding (OVCAR3 FOLR1+ cells; 0.1 μg/mL folate): 57%
- selectivity for FOLR1 (+) cells over FOLR1 (−) cells (OVCAR3 FOLR1+ cells; OVCAR3 vs PC-3, flow cytometry): high selectivity for FOLR1 (+) cells
- binding against OVCAR3 FOLR1+ cells (OVCAR3 FOLR1+ cells; flow cytometry): Dose-dependent binding
- selectivity compared with commercially available FOLR1 antibody (OVCAR3 FOLR1+ cells; flow cytometry): superior to a commercially available FOLR1 antibody
- binding against OVCAR3 FOLR1+ cells (OVCAR3 FOLR1+ cells; flow cytometry, listed as lead heterobiligand): best binding
- displacement by exogenous folic acid at the cellular level (OVCAR3 FOLR1+ cells; increasing exogenous folic acid, flow cytometry): more resilient to folic acid displacement than biotinylated folic acid
- percentage of OVCAR3 cells binding (OVCAR3 FOLR1+ cells; no folate): 76.6%
- percentage of positively stained cells (OVCAR3 cells; OVCAR3, 37° C. 1 hour, before acid treatment): 73.4%
- percentage of positively stained cells (OVCAR3 cells; OVCAR3, following acid treatment): 54.2%
